Test results from paper PMC3531375.

Target: MAP1B light chain 1, C-terminal myc-tag, expressed in COS7 cells (UniProt P15205)
UniProt P15205, sequence (P15205 2210-2459): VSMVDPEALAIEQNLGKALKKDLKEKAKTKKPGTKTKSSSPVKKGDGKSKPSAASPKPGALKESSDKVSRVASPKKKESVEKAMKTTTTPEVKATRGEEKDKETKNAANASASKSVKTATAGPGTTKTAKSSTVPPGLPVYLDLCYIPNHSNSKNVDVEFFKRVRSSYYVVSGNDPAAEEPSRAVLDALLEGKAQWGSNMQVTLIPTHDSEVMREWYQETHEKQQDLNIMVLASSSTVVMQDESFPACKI

Substance: N-terminal truncated Tiam1 (C1199), C-terminal HA-tag (domain or fragment)
- Rac1-GTP pulled down by GST-PAK1 CRIB domain from lysates of COS7 cells co-expressing Tiam1 (C1199 HA) and myc-tagged LC1, relative to total Rac1: 2 fold
